Target: MSH2 (MutSβ subunit);MSH3 (MutSβ subunit) (human;human, UniProt P43246;P20585 1-934;1-1137, |)
Experiment: SPR; 10 mM Mg2+; FAN1 SPR: 20 mM Tris-HCl pH 7.6, 70 mM NaCl, 10 mM CaCl2, 1 mM EDTA, 0.01% P-20, 1 mM DTT, 0.05 mg/ml BSA, 5°C; MutSβ SPR: 10 mM Tris-HCl pH 7.6, 150 mM NaCl, 10 mM MgCl2, 1 mM EDTA, 1 mM DTT, 0.005% P-20 (samples held at 10°C)
Conditions: protein: recombinant;recombinant, tags: ;, copies: 1;1, label: 5'-biotin on strand 1, 5'-digoxigenin on strand 2, blunt

B1: (CAG)1 extrusion mr78 (dsDNA)
DNA 1: CGAATTTCTAGACTCGAGATCAGCTGCTAGGTCGAGTCTAGAG
DNA 2: CTCTAGACTCGACCTAGCAGATCTCGAGTCTAGAAATTCG
Binder B1 has a Kd (central 3-nt extrusion in strand 1, 20 bp each side) of 500 ± 100 pM.

B2: (CAG)3 extrusion mr78 (dsDNA)
DNA 1: CGAATTTCTAGACTCGAGATCAGCAGCAGCTGCTAGGTCGAGTCTAGAG
DNA 2: B1 DNA 2
For B2, the Kd (central 9-nt extrusion in strand 1, 20 bp each side) was 1200 ± 400 pM.

B3: (CAG)2 extrusion mr78 (dsDNA)
DNA 1: CGAATTTCTAGACTCGAGATCAGCAGCTGCTAGGTCGAGTCTAGAG
DNA 2: B1 DNA 2
Binder B3 has a Kd (central 6-nt extrusion in strand 1, 20 bp each side) of 500 ± 160 pM.

B4: (CAG)13 extrusion mr78 (dsDNA)
DNA 1: CGAATTTCTAGACTCGAGATCAGCAGCAGCAGCAGCAGCAGCAGCAGCAGCAGCAGCAGCTGCTAGGTCGAGTCTAGAG
DNA 2: B1 DNA 2
Work on B4 yielded a Kd (central 39-nt extrusion in strand 1, 20 bp each side) of 4200 ± 1500 pM.

From publication PMC12721328, “DNA extrusion size determines pathway choice during CAG repeat expansion”
